In patent CN117736324A:

Key:
[1] = biological target: T1, 人Siglec-15抗原 (Siglec-15蛋白胞外段) (human) (UniProt Q6ZMC9); assay: ELISA, relative binding activity of HA-I purified by the method of Example 24; reference not given
T1 sequence (looked up): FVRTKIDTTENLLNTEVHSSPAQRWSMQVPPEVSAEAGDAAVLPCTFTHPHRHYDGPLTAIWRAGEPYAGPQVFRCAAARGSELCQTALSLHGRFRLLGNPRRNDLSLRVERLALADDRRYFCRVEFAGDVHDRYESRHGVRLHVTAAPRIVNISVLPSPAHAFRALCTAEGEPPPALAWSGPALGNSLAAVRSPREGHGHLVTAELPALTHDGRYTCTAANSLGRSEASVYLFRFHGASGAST

[2] = biological target: T1, 人Siglec-15抗原 (Siglec-15蛋白胞外段) (human); assay: ELISA, relative binding activity of HA-I purified by the method of Example 26; reference not given
[3] = biological target: T1, 人Siglec-15抗原 (Siglec-15蛋白胞外段) (human); assay: ELISA, relative binding activity of HA-I purified by the method of Example 27; reference not given
[4] = biological target: T1, 人Siglec-15抗原 (Siglec-15蛋白胞外段) (human); assay: ELISA, relative binding activity of HA-I purified by the method of Example 28; reference not given
[5] = biological target: T1, 人Siglec-15抗原 (Siglec-15蛋白胞外段) (human); assay: ELISA, relative binding activity of HA-I purified by the method of Example 29; reference not given
[6] = biological target: T1, 人Siglec-15抗原 (Siglec-15蛋白胞外段) (human); assay: ELISA, relative binding activity of HA-I purified by the method of Example 30; reference not given
[7] = biological target: T1, 人Siglec-15抗原 (Siglec-15蛋白胞外段) (human); assay: ELISA, relative binding activity of HA-I purified by the method of Example 31; reference not given
[8] = biological target: T1, 人Siglec-15抗原 (Siglec-15蛋白胞外段) (human); assay: ELISA, relative binding activity of HA-I purified by the method of Example 32; reference not given
[9] = biological target: T1, 人Siglec-15抗原 (Siglec-15蛋白胞外段) (human); assay: ELISA, relative binding activity of HA-I purified by the method of Example 33; reference not given

B1: 抗Siglec-15单克隆抗体HA-I (人源化抗体分子, human IgG1/Ck) (antibody, V domains shown)
VH: QVQLVQSGAEVKKPGASVKVSCKASGYTFTDYNMFWVRQAPGQRLEWIGYIYPDNGGTGYNQNFKSKATLTVDNSASTAYMELSSLRSEDTAVYYCARSEYDYFDYWGQGTLVTVSS
VL: DIVLTQSPSSLSASVGDRVTITCRASQDISNYLNWYQQKPGKAVKLLIYYTSRLHSGVPSRFSGSGSGTDYTFTISSLQPEDIATYFCQQGNTLPLTFGQGTKVELKR
Which results are given for B1?
结合活性(%) [1]: 100%; 结合活性(%) [2]: 112%; 结合活性(%) [3]: 88%; 结合活性(%) [4]: 90%; 结合活性(%) [5]: 78%; 结合活性(%) [6]: 105%; 结合活性(%) [7]: 79%; 结合活性(%) [8]: 86%; 结合活性(%) [9]: 83%
